Results: patent US11739333B2, “Regulation of gene expression by aptamer-modulated RNase p cleavage” (MeiraGTx UK II Limited, priority 2017, dated 2023)

What was measured:
[1] = test system: luciferase target gene expression in HEK 293 cells; test: Firefly luciferase assay of cultured cells, mascRNA inserted in 3' UTR; assay type: cell-based; conditions: no ligand
Protocol: Plasmid constructs: DNA fragments containing mouse mascRNA sequence and restriction sites at each end were synthesized (IDT), and digested and cloned into a plasmid backbone Con 8 that contains CMV enhancer/promoter and human beta-globin polyadenylation sequence. All constructs were verified by DNA sequencing (Genewiz).
Firefly luciferase assay of cultured cells: 3.5×10^4 HEK 293 cells were plated in 96-well flat bottom plate the day before transfection. Plasmid DNA (500 ng) was added to a tube or a 96-well U-bottom plate. Separately, TransIT-293 reagent (Minis; 1.4 μL) was added to 50 μL opti-mem I media (Life Technologies) and allowed to sit for 5 minutes at room temperature (“RT”). Then, 50 μL of this diluted transfection reagent was added to the DNA, mixed, and incubated at RT for 20 min. Finally, 7 μL of this solution was added to a well of cells in a 96-well plate. 4 hours after transfection, medium containing transfection solution was replaced with fresh medium. 24 hours after media change, plates were removed from the incubator, and equilibrated to RT for several minutes on a lab bench, then aspirated. […] Following a 5-min incubation at RT, luminescence was measured using a Tecan machine with 500 mSec read time. The luciferase activity was expressed as mean arbitrary light unit (ALU)±S.D.

[2] = test system: luciferase target gene expression in HEK 293 cells (aptamer-modulated RNase P cleavage of mRNA); test: Firefly luciferase assay of transfected cells treated with or without aptamer ligand; assay type: cell-based
Protocol: Firefly luciferase assay of cultured cells: 3.5×10^4 HEK 293 cells were plated in 96-well flat bottom plate the day before transfection. Plasmid DNA (500 ng) was added to a tube or a 96-well U-bottom plate. Separately, TransIT-293 reagent (Minis; 1.4 μL) was added to 50 μL opti-mem I media (Life Technologies) and allowed to sit for 5 minutes at room temperature (“RT”). Then, 50 μL of this diluted transfection reagent was added to the DNA, mixed, and incubated at RT for 20 min. Finally, 7 μL of this solution was added to a well of cells in a 96-well plate. 4 hours after transfection, medium containing transfection solution was replaced with fresh medium. 24 hours after media change, plates were removed from the incubator, and equilibrated to RT for several minutes on a lab bench, then aspirated. Glo-lysis buffer (Promega, 100 μL, RT) was added, and the plates allowed to remain at RT for at least 5 minutes. Then, the well contents were mixed by 50 μL trituration, and 20 μL of each sample was mixed with 20 μL of bright-glo reagent (Promega) that had been diluted to 10% in glo-lysis buffer. 96 wells were spaced on an opaque white 384-well plate. Following a 5-min incubation at RT, luminescence was measured using a Tecan machine with 500 mSec read time. The luciferase activity was expressed as mean arbitrary light unit (ALU)±S.D.
Plasmid constructs: oligonucleotide fragments containing mascRNA and guanine aptamer sequences (Mandal, M, et al., Cell 113, 577-586 (2003), incorporated herein by reference) were synthesized (IDT) and cloned into a luciferase (Luci) expression construct (Con8) in the 3′ UTR region using compatible restriction sites BamHI and XhoI. All the constructs were verified by DNA sequencing (Genewiz).
Firefly luciferase assay of cultured cells: cells were transfected as described in Example 1. Four hours after transfection, medium containing transfection solution was replaced by medium with either 0.5% DMSO as solvent control or 500 μM guanosine (Sigma) as aptamer ligand. Twenty-two to twenty-four hours after treatment, a luciferase assay was performed as described in Example 1.
Plasmid construction: a DNA fragment containing sequences for the guanine aptamer xpt-G and human arginine pre-tRNA (Nashimoto M. N. et al. Long 5′ leaders inhibit removal of a 3′ trailer from a precursor tRNA by mammalian tRNA 3′ processing endoribonuclease. Nucleic Acids Research, 1999; 27(13): 2770-2776) were synthesized (IDT). The synthesized DNA fragments were digested with BamHI and XhoI restriction enzymes and cloned into the Con8 construct digested with the same restriction enzymes. Construct sequences were verified by DNA sequencing (Genewiz).
Plasmid construction: a DNA fragment containing sequences for the adenine aptamer ydhl-A (M. Mandal and R. R. Breaker, Adenine riboswitches and gene activation by disruption of a transcription terminator. Nature Structural & Molecular Biology. 2004; 11: 29-35, incorporated herein by reference) or theophylline aptamer (G. R. Zimmerman, et al. Interlocking structural motifs mediate molecular discrimination by a theophylline-binding RNA. Nature Structural Biology. 1997; 4: 644-649, incorporated herein by reference), and mascRNA sequence were synthesized (IDT). The synthesized DNA fragments were digested with BamHI and XhoI restriction enzymes and cloned into Con8 digested with the same restriction enzymes. Construct sequences were verified by DNA sequencing (Genewiz).
Four hours after transfection, the media was aspirated, and new media with NaOH (1 mM) as solvent or 1 mM adenine (Calbiochem), or 3 mM theophylline (Sigma) was added. The induction fold was expressed as the quotient of luciferase activity obtained in the presence of aptamer ligand divided by the value obtained in the absence of the aptamer ligand. […]

For “Luci-mascRNA-mlp: luciferase construct with mascRNA mutated in the T-loop from UUC to AAG, negative control (GACGCUGGUGGCUGGCACUCCUGGUUUCCAGGACGGGGAAGAAGUCCCUGCGGUGUCU)”, the “decrease in luciferase expression compared to the luciferase construct that has no mascRNA (Luci)” value [1] was 20%.

B1: MG4: SEQ ID NO: 13; MG1 variant with 3 alternatively shared nucleotides (nucleic acid)
chain: CCTCATAAAGGCCAAGAAGGGCGGAAAGATCGCCGTGTAAGGATCCAAGACGAGCTGTACAAGTAAAGCGGCCAATTCGGACAAAAACGAGACGCTGGTGGCTGGCACTCCTGGTTTCCAGGACGGGGTTCAAGTCCCTGCGGTGTCTAGTATAATCGCGTGGATATGGCACGCAAGTTTCTACCGGGCACCGTAAATGTCCGACTACTAGACTTCTAGAGTCGACCTGCAGGCATGCAAGCTTCAGCTGCTCGAGGGCCCAGATCTAATTCACCCCACCAGTGCAGGCTGCCTATCAG
In the case of B1, the “basal level luciferase activity” value ([2]; absence of guanine) is reported as “modest decrease” and the “induction fold of luciferase, with guanine versus without guanine” value ([2]; guanine treatment) is reported as “approximately 2 fold”.

B2: MG3: SEQ ID NO: 12; MG1 variant with 4 alternatively shared nucleotides (nucleic acid)
chain: CCTCATAAAGGCCAAGAAGGGCGGAAAGATCGCCGTGTAAGGATCCAAGACGAGCTGTACAAGTAAAGCGGCCAATTCGGACAAAAACGAGACGCTGGTGGCTGGCACTCCTGGTTTCCAGGACGGGGTTCAAGTCCCTGCGGTGTCTGTATAATCGCGTGGATATGGCACGCAAGTTTCTACCGGGCACCGTAAATGTCCGACTACAGACAATCTAGAGTCGACCTGCAGGCATGCAAGCTTCAGCTGCTCGAGGGCCCAGATCTAATTCACCCCACCAGTGCAGGCTGCCTATCAG
In the case of B2, the “basal level luciferase activity” value ([2]; absence of guanine) is reported as “modest decrease” and the “induction fold of luciferase, with guanine versus without guanine” value ([2]; guanine treatment) is reported as “approximately 2 fold”.

B3: GM8: SEQ ID NO: 10; 3 nucleotides between effector region stem and mascRNA acceptor stem (nucleic acid)
chain: CCTCATAAAGGCCAAGAAGGGCGGAAAGATCGCCGTGTAAGGATCCAAGACGAGCTGTACAAGTAAAGAAGAGCTAATGTATAATCGCGTGGATATGGCACGCAAGTTTCTACCGGGCACCGTAAATGTCCGACTACATTAGCCGAGACGCTGGTGGCTGGCACTCCTGGTTTCCAGGACGGGGTTCAAGTCCCTGCGGTGTCTTTGCTTGGATCGGCCGCGACTCTAGAGTCGACCTGCAGGCATGCAAGCTTCAGCTGCTCGAGGGCCCAGATCTAATTCACCCCACCAGTGCAGGCTGCCTATCAG
In the case of B3, the “luciferase expression in response to guanine treatment” value ([2]; guanine treatment) is reported as “upregulate luciferase expression”.

B4: GArg: SEQ ID NO: 14; GM1 with mascRNA replaced by human arginine tRNA sequence (nucleic acid)
chain: CCTCATAAAGGCCAAGAAGGGCGGAAAGATCGCCGTGTAAGGATCCAAGACGAGCTGTACAAGTAAAGAAGACTGCGACGATAATCGCGTGGATATGGCACGCAAGTTTCTACCGGGCACCGTAAATGTCCGACTCGTCGCAGGGCCAGTGGCGCAATGGATAACGCGTCTGACTACGGATCAGAAGATTCCAGGTTCGACTCCTGGCTGGCTCGGTGTAGGCCGCGACTCTAGAGTCGACCTGCAGGCATGCAAGCTTCAGCTGCTCGAGGGCCCAGATCTAATTCACCCCACCAGTGCAGGCTGCCTATCAG
B4 was tested, and the “basal level luciferase expression as % of control construct Con8” value ([2]; absence of guanine) was “approximately 50%” and the “induction fold of luciferase, with guanine versus without guanine” value ([2]; guanine treatment) was 1.6 fold.

B5: YM: SEQ ID NO: 15; ydhl-A adenine aptamer and mascRNA in luciferase 3' UTR (nucleic acid)
chain: CCTCATAAAGGCCAAGAAGGGCGGAAAGATCGCCGTGTAAGGATCCAAGACGAGCTGTACAAGTAAAGCGGCCGTAATGTTATAACCTCAATAATATGGTTTGAGGGTGTCTACCAGGAACCGTAAAATCCTGATTAACATTACGACGCTGGTGGCTGGCACTCCTGGTTTCCAGGACGGGGTTCAAGTCCCTGCGGTGTCTTTGCTTGGATCGGCCGCGACTCTAGAGTCGACCTGCAGGCATGCAAGCTTCAGCTGCTCGAGGGCCCAGATCTAATTCACCCCACCAGTGCAGGCTGCCTATCAG
In the case of B5, the “fold increase in luciferase expression with adenine” value ([2]; 1 mM adenine vs NaOH solvent) is reported as 3.3 fold.

B6: TheoM: SEQ ID NO: 16; theophylline aptamer and mascRNA in luciferase 3' UTR (nucleic acid)
chain: CCTCATAAAGGCCAAGAAGGGCGGAAAGATCGCCGTGTAAGGATCCAAGACGAGCTGTACAAGTAAAGCGGCCTAATGTGATACCAGCCGAAAGGCCCTTGGCAGCACATTAGACGCTGGTGGCTGGCACTCCTGGTTTCCAGGACGGGGTTCAAGTCCCTGCGGTGTCTTTGCTTGGATCGGCCGCGACTCTAGAGTCGACCTGCAGGCATGCAAGCTTCAGCTGCTCGAGGGCCCAGATCTAATTCACCCCACCAGTGCAGGCTGCCTATCAG
For B6, the “fold increase in luciferase expression with theophylline” value ([2]; 3 mM theophylline vs solvent) was 4.1 fold and the “luciferase level as % of the control Con8 construct” value ([2]; absence of theophylline treatment) was “approximately 43.4%”.
